B1: PHTF1 (parent)
chain: SRHLNSQVKKTTTRWCHIVRDSDS

Variants of: B1
Assay: protein stability index of a GFP-peptide fusion (GPS, HEK-293T) (PSI 1-6); higher = more stable
Details: c terminus: a fixed tail appended
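Further: lentivirally expressed fusions sorted by FACS into six bins by GFP to DsRed ratio, PSI derived from sequencing read proportions per bin multiplied by bin number.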

Row | Variant | protein stability index
1 | SRHLNSQPKKTTTRWCHIVRDSDS [V8P] | 2.18
2 | SRHLNSQAKKTTTRWCHIVRDSDS [V8A] | 2.26
3 | SRHLNSQHKKTTTRWCHIVRDSDS [V8H] | 2.22
4 | SRHLNSQWKKTTTRWCHIVRDSDS [V8W] | 1.34
5 | SRHLNSQLKKTTTRWCHIVRDSDS [V8L] | 2.07
6 | SRHLNSQMKKTTTRWCHIVRDSDS [V8M] | 2.08
7 | SRHLNSQRKKTTTRWCHIVRDSDS [V8R] | 1.78
8 | SRHLNSQYKKTTTRWCHIVRDSDS [V8Y] | 1.57
9 | SRHLNSQGKKTTTRWCHIVRDSDS [V8G] | 2.57
10 | SRHLNSQSKKTTTRWCHIVRDSDS [V8S] | 2.61
11 | SRHLNSQQKKTTTRWCHIVRDSDS [V8Q] | 1.98
12 | SRHLNSQDKKTTTRWCHIVRDSDS [V8D] | 2.06
13 | SRHLNSQNKKTTTRWCHIVRDSDS [V8N] | 1.78
14 | SRHLNSQKKKTTTRWCHIVRDSDS [V8K] | 1.79
15 | SRHLNSQFKKTTTRWCHIVRDSDS [V8F] | 2.57
16 | SRHLNSQEKKTTTRWCHIVRDSDS [V8E] | 2.79
17 | SRHLNSQIKKTTTRWCHIVRDSDS [V8I] | 2.35
18 | SRHLNSQCKKTTTRWCHIVRDSDS [V8C] | 2.6
19 | SRHLNSQTKKTTTRWCHIVRDSDS [V8T] | 2.1
20 | SRHLNCQVKKTTTRWCHIVRDSDS [S6C] | 1.7
21 | SRHLNPQVKKTTTRWCHIVRDSDS [S6P] | 3.03
22 | SRHLNFQVKKTTTRWCHIVRDSDS [S6F] | 1.45
23 | SRHLNIQVKKTTTRWCHIVRDSDS [S6I] | 2.22
24 | SRHLNMQVKKTTTRWCHIVRDSDS [S6M] | 1.93

Row | Variant | protein stability index
25 | SRHLNLQVKKTTTRWCHIVRDSDS [S6L] | 1.68
26 | SRHLNQQVKKTTTRWCHIVRDSDS [S6Q] | 2.61
27 | SRHLNGQVKKTTTRWCHIVRDSDS [S6G] | 1.98
28 | SRHLNNQVKKTTTRWCHIVRDSDS [S6N] | 2.44
29 | SRHLNVQVKKTTTRWCHIVRDSDS [S6V] | 1.94
30 | SRHLNWQVKKTTTRWCHIVRDSDS [S6W] | 2.5
31 | SRHLNRQVKKTTTRWCHIVRDSDS [S6R] | 2.17
32 | SRHLNYQVKKTTTRWCHIVRDSDS [S6Y] | 2.86
33 | SRHLNTQVKKTTTRWCHIVRDSDS [S6T] | 1.83
34 | SRHLNEQVKKTTTRWCHIVRDSDS [S6E] | 2.31
35 | SRHLNDQVKKTTTRWCHIVRDSDS [S6D] | 2.88
36 | SRHLNKQVKKTTTRWCHIVRDSDS [S6K] | 2.38
37 | SRHLNHQVKKTTTRWCHIVRDSDS [S6H] | 2.29
38 | SRHLNSQVKKTTTRWAHIVRDSDS [C16A] | 1.3
39 | SRHLNSQVKKTTTRCCHIVRDSDS [W15C] | 2.74
40 | SRHLNSQVKKTTTRNCHIVRDSDS [W15N] | 3.56
41 | SRHLNSQVKKTTTRLCHIVRDSDS [W15L] | 2.77
42 | SRHLNSQVKKTTTRKCHIVRDSDS [W15K] | 3.78
43 | SRHLNSQVKKTTTRQCHIVRDSDS [W15Q] | 4.35
44 | SRHLNSQVKKTTTRACHIVRDSDS [W15A] | 2.37
45 | SRHLNSQVKKTTTRECHIVRDSDS [W15E] | 4.88
46 | SRHLNSQVKKTTTRDCHIVRDSDS [W15D] | 4.57
47 | SRHLNSQVKKTTTRVCHIVRDSDS [W15V] | 3.06
48 | SRHLNSQVKKTTTRRCHIVRDSDS [W15R] | 3.94

Row | Variant | protein stability index
49 | SRHLNSQVKKTTTRICHIVRDSDS [W15I] | 3.36
50 | SRHLNSQVKKTTTRPCHIVRDSDS [W15P] | 3.86
51 | SRHLNSQVKKTTTRFCHIVRDSDS [W15F] | 3.71
52 | SRHLNSQVKKTTTRHCHIVRDSDS [W15H] | 3.53
53 | SRHLNSQVKKTTTRGCHIVRDSDS [W15G] | 3.24
54 | SRHLNSQVKKTTTRSCHIVRDSDS [W15S] | 3.84
55 | SRHLNSQVKKTTTRYCHIVRDSDS [W15Y] | 3.36
56 | SRHLNSQVKKTTTRTCHIVRDSDS [W15T] | 3.87
57 | SRHLNSQVKKTTTRMCHIVRDSDS [W15M] | 3.22
58 | SRHLNSQVKKTSTRWCHIVRDSDS [T12S] | 2.62
59 | SRHLNSQVKKTCTRWCHIVRDSDS [T12C] | 2.19
60 | SRHLNSQVKKTLTRWCHIVRDSDS [T12L] | 1.53
61 | SRHLNSQVKKTRTRWCHIVRDSDS [T12R] | 2.09
62 | SRHLNSQVKKTGTRWCHIVRDSDS [T12G] | 1.64
63 | SRHLNSQVKKTYTRWCHIVRDSDS [T12Y] | 1.5
64 | SRHLNSQVKKTWTRWCHIVRDSDS [T12W] | 2.36
65 | SRHLNSQVKKTATRWCHIVRDSDS [T12A] | 2.1
66 | SRHLNSQVKKTETRWCHIVRDSDS [T12E] | 2.68
67 | SRHLNSQVKKTMTRWCHIVRDSDS [T12M] | 1.76
68 | SRHLNSQVKKTFTRWCHIVRDSDS [T12F] | 1.66
69 | SRHLNSQVKKTVTRWCHIVRDSDS [T12V] | 1.94
70 | SRHLNSQVKKTDTRWCHIVRDSDS [T12D] | 2.91
71 | SRHLNSQVKKTITRWCHIVRDSDS [T12I] | 1.93
72 | SRHLNSQVKKTKTRWCHIVRDSDS [T12K] | 1.82

Row | Variant | protein stability index
73 | SRHLNSQVKKTQTRWCHIVRDSDS [T12Q] | 2.12
74 | SRHLNSQVKKTHTRWCHIVRDSDS [T12H] | 1.31
75 | SRHLNSQVKKTNTRWCHIVRDSDS [T12N] | 1.76
76 | SRHLNSQVKKTPTRWCHIVRDSDS [T12P] | 2.71
77 | SRHLNSFVKKTTTRWCHIVRDSDS [Q7F] | 1.22
78 | SRHLNSKVKKTTTRWCHIVRDSDS [Q7K] | 2.45
79 | SRHLNSHVKKTTTRWCHIVRDSDS [Q7H] | 3.08
80 | SRHLNSWVKKTTTRWCHIVRDSDS [Q7W] | 2.84
81 | SRHLNSYVKKTTTRWCHIVRDSDS [Q7Y] | 1.68
82 | SRHLNSSVKKTTTRWCHIVRDSDS [Q7S] | 2.8
83 | SRHLNSPVKKTTTRWCHIVRDSDS [Q7P] | 2.69
84 | SRHLNSEVKKTTTRWCHIVRDSDS [Q7E] | 2.4
85 | SRHLNSRVKKTTTRWCHIVRDSDS [Q7R] | 2
86 | SRHLNSCVKKTTTRWCHIVRDSDS [Q7C] | 2.08
87 | SRHLNSNVKKTTTRWCHIVRDSDS [Q7N] | 1.78
88 | SRHLNSMVKKTTTRWCHIVRDSDS [Q7M] | 1.73
89 | SRHLNSIVKKTTTRWCHIVRDSDS [Q7I] | 2.17
90 | SRHLNSLVKKTTTRWCHIVRDSDS [Q7L] | 1.84
91 | SRHLNSGVKKTTTRWCHIVRDSDS [Q7G] | 1.89
92 | SRHLNSTVKKTTTRWCHIVRDSDS [Q7T] | 2.82
93 | SRHLNSAVKKTTTRWCHIVRDSDS [Q7A] | 2.6
94 | SRHLNSDVKKTTTRWCHIVRDSDS [Q7D] | 2.65
